# Read-outs that look alike come from different tables or passages of the source. Where no end group is shown, it is not given here.
# Columns and labels:
# [1] = design: species or system BALB/c mice; details: mouse, in vivo
# From the text: FIGS. 8A-8E. Biodistribution and LN retention of CpG on day3 and day5, as determined by ROI signal quantification of PET images and γ-counting of isolated organs. (A) PET quantification of the % ID of different forms of CpG in major organs on Day3. (B) Detailed PET quantification of the % ID of different forms of CpG in IN and AX LNs on Day3. (C) γ-counting quantification of the % ID/g of different forms of CpG in LNs on Day3. (D) γ-counting quantification of the % ID/g of different forms of CpG in major organs on Day5. (E) γ-counting quantification of the % ID/g of different forms of CpG in LNs on Day5. Due to signal decay over 5 days, the radioactivity was too low to be detected by PET on day5, so the % injection dose on Day5 was not determined by PET. ID: injection dose; ID/g: injection dose/gram of tissue.
# The blood had less than 4% ID/g for all tested formulations. On day 5 post injection, even though the radioactivity of ^64Cu-labeled vaccines was too low to be sensitively detected by PET, the radioactivity of ex vivo organs were sensitively measured to determine the biodistribution profile (FIGS. 8D-8E).
# [2] = mouse, in vivo, sc
# Method: (A) Structures, formulations, and radiolabeling strategies of CpG derivatives for PET-based screening. (B) Representative coronal PET images showing FVB mice at 6 h post s.c. injection of CpG derivatives at tail base. […] White arrow heads mark IN and AX LNs. (C) Amounts of CpG derivatives in IN and AX LNs quantified from 3D-reconstructed, decay-corrected PET images (n=4-8).
# Coronal (coro), transverse (trans), and 3D projection (proj) of PET images showing efficient LN-targeted delivery and whole-body distribution of MH2C over 3 days post injection. White arrow heads mark IN and AX LNs. The scale bar for 3D proj was based on the maximal signal intensity in each image. (Injection dose: 120 μCi; ID: injection dose).
# Mice were s.c. injected with ^64Cu-radiolabeled AlbiCpG, followed by PET imaging to reveal its 3D biodistribution in mice over 3 days (FIG. 5B). […] Based on PET, decay-corrected radioactivity in draining inguinal (IN) LNs, and axillary (AX) LNs. LNs were quantified as the percentage of injection dose (% ID) (FIG. 5C).
# [3] = PET imaging of 64Cu-labeled AlbiAdpgk LN delivery; format: in vivo, FVB mice
# Method: FIG. 25A-25D. Representative coronal and transverse of PET images (A) at 6 h post injection and quantification (B) of AlbiAdpgk, free Adpgk, and IFA(Adpgk) in IN and AX LNs of FVB mice (n=4/group). White arrows mark the LNs. (C) Quantified biodistribution of ^64Cu-labeled AlbiAdpgk in organs by γ-counting of excised organs at 48 h post injection. (D) % ID at injection sites quantified from decay-corrected PET scans.
# (§1) Encouraged by the efficient delivery of peptide antigen, AlbiVax-based neoantigen delivery was exploited for personalized tumor immunotherapy. Adpgk, a neoantigen [ASMTN(R→M)ELM] (SEQ ID NO: 86) in MC38 (colon cancer) tumor cells^7 was used. The conjugation of hydrophilic MEB improved the water solubility of MEB-Adpgk (denoted as AlbiAdpgk).
# [4] = water solubility of MEB-peptide conjugates; format: physicochemical
# From the text: (§2) Tyrosinase-related protein 2 (Trp2), a melanoma-associated subunit Ag, was used in this study. Trp2 with an N-terminal cysteine was conjugated with MEB to prepare albumin-binding MEB-Trp2 (denoted as AlbiTrp2). Hydrophilic MEB increased the water solubility of AlbiTrp2 relative to Trp2, and the resulting amphiphilic AlbiTrp2 self-assembled into nanoparticles in aqueous solution (FIG. 21A, 21B). […] To study LN-targeted Trp2 delivery, ^64Cu-labeled AlbiTrp2 was s.c. injected at the tail base of FVB mice for PET imaging (FIG. 22A).
# as §1
# [5] = tested on: BMDCs and RAW264.7 macrophages; experiment: ELISA of proinflammatory factors in culture medium (in vitro immunostimulation); format: cell-based
# albumin [6] = experiment: method not named; recovery of MEB fluorescence on albumin binding (FIG. 21C)
# Target sequence in this assay (P02768 25-609): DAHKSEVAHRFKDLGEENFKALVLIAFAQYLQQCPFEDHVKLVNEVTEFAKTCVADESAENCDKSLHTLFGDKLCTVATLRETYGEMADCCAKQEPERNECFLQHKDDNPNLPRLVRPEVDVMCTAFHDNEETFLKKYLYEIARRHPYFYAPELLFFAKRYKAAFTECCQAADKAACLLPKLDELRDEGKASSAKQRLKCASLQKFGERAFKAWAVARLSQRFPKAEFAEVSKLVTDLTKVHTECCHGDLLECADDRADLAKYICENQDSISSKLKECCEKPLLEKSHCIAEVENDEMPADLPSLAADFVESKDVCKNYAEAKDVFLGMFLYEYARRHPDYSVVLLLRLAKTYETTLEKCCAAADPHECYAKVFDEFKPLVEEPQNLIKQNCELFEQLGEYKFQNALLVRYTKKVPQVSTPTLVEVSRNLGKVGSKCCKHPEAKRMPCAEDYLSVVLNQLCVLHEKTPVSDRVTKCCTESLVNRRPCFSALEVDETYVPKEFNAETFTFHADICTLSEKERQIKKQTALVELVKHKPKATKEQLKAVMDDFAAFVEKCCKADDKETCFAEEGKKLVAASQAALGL
# [7] = PET imaging of vaccine uptake in LNs of B16F10 tumor-bearing mice; format: in vivo, C57BL/6 mice
# From the text: FIG. 23A-23D. Representative PET images (A) and the corresponding quantification (B) showing the uptake of AlbiCpG (MEB-(HEG)2-CpG) in draining IN LNs and AX LNs of B16F10 tumor-bearing C57BL/6 mice. […] (C-D) Representative PET images (c) and the corresponding quantification (D) showing the uptake of AlbiTrp2 in LNs (IN and AX) of B16F10 tumor-bearing C57BL/6 mice. (Coro: coronal; trans: transverse; proj: projection; ID: injection dose; ID/g: ID/gram of organ weight)
# For immunotherapy, C57BL/6 mice s.c. inoculated with 3×10^5 B16F10 cells were treated with AlbiCpG (2 nmole CpG equivalents)+AlbiTrp2 (20 μg) on days 6, 12, and 18 post inoculation. […] Furthermore, using a combination of multiple synergistic therapeutics can be used.
# [8] = PET imaging of 64Cu-labeled AlbiTrp2 LN delivery; format: in vivo, FVB mice; details: within 3 days
# From the text: FIG. 22A-22B. […] White arrows mark LNs.
# as §2
# albumin [9] = experiment: albumin binding of AlbiTrp2; details: R^2=0.88
# From the text: FIG. 21A-21C. TEM (A) and AFM (B) images of albumin/AlbiTrp2 nanocomplexes. The length-height graph in (B) was shown for the marked crossline in AFM image. (C) Albumin binding of AlbiTrp2 recovered the MEB fluorescence.
# as §2
substance,measurement,setting,value
CpG 1826,% ID/g in inguinal LNs,[1],8.3±4.7 % ID/g
same,radioactivity density in axillary LNs,[1],3.2±1.2 %/g
same,accumulation / retention in LNs,[2],no apparent accumulation in any of the LNs
"AlbiAdpgk: MEB conjugate of Adpgk neoantigen ASMTNMELM (SEQ ID NO: 86) of MC38 (also: MEB (albumin-binding) conjugate, site not given here)",amount trapped at the injection sites relative to IFA(Adpgk),[3]; PET,Significantly less
same,AUC in IN and AX LNs relative to Adpgk or IFA(Adpgk),[3]; within 2 days,43 fold
same,water solubility,[4]; relative to unconjugated peptide,improved
"MEB-GpC: MEB conjugate of control GpC ODN (TCCATGAGCTTCCTGAGCTT, SEQ ID NO: 34) (DNA, backbone and methylation of C not given here; further chemistry not fully specified)",secretion of proinflammatory factors (ELISA),[5]; BMDCs and RAW264.7 macrophages,did not stimulate these cells significantly more potently than the background
same,immunostimulatory activity (ELISA of culture medium),"[5]; RAW264.7 macrophages, alone or premixed with HSA",inactive for immunostimulation
MEB-Trp2 (albumin-binding conjugate of maleimide-functionalized truncated Evans Blue with Trp2 peptide bearing an N-terminal cysteine) (from UniProt P29812 180-188),Kd,albumin [6],790 nM
AlbiTrp2: Trp2 peptide with N-terminal cysteine conjugated with MEB (CSVYDFFVWL),delivery to LNs in tumor-bearing mice,[7],efficiently delivered to LNs except tumor draining axillary LNs
same,AUC in LNs relative to free Trp2,[8],91 fold
same,water solubility,[4],increased
same,Kd,albumin [9],790 nM

# From patent publication US20190298824A1, “ALBUMIN-BINDING IMMUNOMODULATORY COMPOSITIONS AND METHODS OF USE THEREOF” (THE UNITED STATES OF AMERICA, as represented by the …, priority 2016, published 2019)
